Test results: the supplement of paper PMC12783771
± gives the standard deviation of the averaged measurements.

B1: library; numbered along this chain (parent)
chain: MNIQIGELAKRTACPVVTIRFYEQEGLLPPPGRSRGNFRLYGEEHVERLQFIRHCRSLDMPLSDVRTLLSYRKRPDQDCGEVNMLLDEHIRQVESRIGALLELKHHLVELREACSGARPAQSCGILQGLSDCVCDTRGTTAHPSD

What was measured:
[1] = variants of: B1; assay: sfGFP reporter fluorescence (15 h) (µM FITC); higher = higher leak; conditions: library round: Round 0; ligand: none
Method: (§1)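 Cell-free (BL21 Star DE3 extract, PANOx-SP) biosensing: 1 µL Echo-assembled reactions with linear PbrR variant templates (5 nM) and pPbrR-sfGFP reporter, with 1 µM Pb (lead chloride), 30 µM Zn (zinc acetate) or no ligand; endpoint sfGFP fluorescence after 15 h at 30 °C, calibrated as µM FITC. Round 0 library (alanine scan, site saturation, combinatorial) of PbrR from Cupriavidus metallidurans; 2 biological replicates.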

[2] = variants of: B1; assay: sfGFP reporter fluorescence (15 h) (µM FITC); higher = stronger transcriptional activation; conditions: library round: Round 0
Method: as §1

| Variant | sfGFP reporter fluorescence [1] | sfGFP reporter fluorescence ([2]; ligand: 1 µM Pb) | sfGFP reporter fluorescence ([2]; ligand: 30 µM Zn) |
| --- | --- | --- | --- |
| P30I | 0.0563 ± 0.0039 | 0.0869 ± 0.001 | 0.926 ± 0.2 |
| P30F | 0.0603 ± 0.0018 | 0.0759 ± 0.001 | 0.489 ± 0.015 |
| P30G | 0.05699 ± 0.00026 | 0.0665 ± 0.0023 | 0.436 ± 0.021 |
| P30V | 0.0619 ± 0.001 | 0.0924 ± 0.001 | 1 ± 0.0021 |
| P30A | 0.0623 ± 0.001 | 0.0748 ± 0.001 | 0.681 ± 0.087 |
| P30Y | 0.0616 ± 0.001 | 0.0771 ± 0.0049 | 0.612 ± 0.013 |
| P30R | 0.06414 ± 0.00052 | 0.088 | 1.15 ± 0.039 |
| P30W | 0.0634 ± 0.0015 | 0.0722 ± 0.0031 | 0.33 ± 0.015 |
| Y41R | 0.0618 ± 0.0013 | 0.0623 ± 0.001 | 0.0643 ± 0.0013 |
| Y41T | 0.0597 ± 0.0026 | 0.05974 ± 0.00052 | 0.0592 ± 0.0039 |
| Y41A | 0.0616 ± 0.0042 | 0.0605 | 0.0651 ± 0.0013 |
| Y41W | 0.0586 | 0.0658 ± 0.0029 | 0.1977 ± 0.00078 |
| Y41I | 0.0575 ± 0.0015 | 0.0572 ± 0.0021 | 0.0623 ± 0.0031 |
| Y41G | 0.0563 ± 0.00078 | 0.0564 ± 0.001 | 0.0579 ± 0.0026 |
| Y41Q | 0.0581 ± 0.0023 | 0.0597 | 0.0574 ± 0.0054 |
| Y41M | 0.0629 ± 0.00078 | 0.0596 ± 0.0023 | 0.113 ± 0.0078 |
| Y41C | 0.0618 ± 0.0018 | 0.0592 ± 0.00078 | 0.0654 ± 0.0018 |
| Y41S | 0.0603 ± 0.00078 | 0.0612 ± 0.0021 | 0.0616 ± 0.0015 |
| Y41H | 0.0599 ± 0.0029 | 0.0618 ± 0.0023 | 0.0678 ± 0.0026 |
| Y41V | 0.059 ± 0.001 | 0.05974 ± 0.00052 | 0.0687 ± 0.0013 |
| Y41P | 0.0583 ± 0.001 | 0.0597 ± 0.001 | 0.0601 ± 0.0026 |
| Y41L | 0.0597 | 0.0596 ± 0.0029 | 0.0729 ± 0.0083 |
| Y41D | 0.0601 ± 0.001 | 0.0607 ± 0.00078 | 0.0621 ± 0.0023 |

| Variant | sfGFP reporter fluorescence [1] | sfGFP reporter fluorescence ([2]; ligand: 1 µM Pb) | sfGFP reporter fluorescence ([2]; ligand: 30 µM Zn) |
| --- | --- | --- | --- |
| Y41N | 0.0594 ± 0.0031 | 0.0601 | 0.0597 ± 0.0015 |
| Y41K | 0.06047 ± 0.00052 | 0.061 ± 0.0029 | 0.0621 ± 0.0018 |
| Y41E | 0.0607 ± 0.00078 | 0.0625 ± 0.00078 | 0.0619 ± 0.0015 |
| Y41F | 0.0572 ± 0.0031 | 0.1001 ± 0.00052 | 1.19 ± 0.041 |
| Q50A | 0.06615 ± 0.00026 | 0.0891 | 0.743 ± 0.019 |
| H45A | 0.0599 ± 0.0018 | 0.07275 ± 0.00026 | 0.687 ± 0.088 |
| P29A | 0.0607 ± 0.0044 | 0.0704 ± 0.0031 | 0.455 ± 0.039 |
| F51A | 0.06597 ± 0.00052 | 0.0621 ± 0.0023 | 0.16 ± 0.0083 |
| G42A | 0.06212 ± 0.00026 | 0.0737 ± 0.0021 | 0.482 ± 0.034 |
| R39K | 0.0612 ± 0.0015 | 0.0623 ± 0.0036 | 0.14 ± 0.022 |
| R39G | 0.0555 ± 0.00078 | 0.0563 ± 0.0023 | 0.0563 ± 0.0018 |
| R39Y | 0.05992 ± 0.00026 | 0.0605 ± 0.0036 | 0.0608 ± 0.0047 |
| R39A | 0.0651 ± 0.0018 | 0.0599 ± 0.0029 | 0.0678 ± 0.0021 |
| R39W | 0.05956 ± 0.00026 | 0.0599 ± 0.00078 | 0.06011 ± 0.00052 |
| R39P | 0.0581 ± 0.00078 | 0.0597 ± 0.001 | 0.0581 ± 0.0029 |
| R39M | 0.06139 ± 0.00026 | 0.0616 ± 0.0026 | 0.0583 |
| R39H | 0.0625 ± 0.0018 | 0.0652 ± 0.0031 | 0.0663 ± 0.0047 |
| R39N | 0.06102 ± 0.00026 | 0.0597 ± 0.0015 | 0.0605 |
| R39I | 0.0572 ± 0.0015 | 0.0566 ± 0.0018 | 0.0726 ± 0.0042 |
| R39V | 0.0588 ± 0.00078 | 0.05882 ± 0.00026 | 0.05736 ± 0.00026 |
| R39E | 0.0614 ± 0.0013 | 0.0634 | 0.066 ± 0.0015 |
| R39Q | 0.0612 ± 0.001 | 0.0599 ± 0.0018 | 0.0583 ± 0.001 |
| R39F | 0.0597 ± 0.001 | 0.0588 ± 0.0013 | 0.0555 ± 0.0018 |

| Variant | sfGFP reporter fluorescence [1] | sfGFP reporter fluorescence ([2]; ligand: 1 µM Pb) | sfGFP reporter fluorescence ([2]; ligand: 30 µM Zn) |
| --- | --- | --- | --- |
| R39L | 0.0581 ± 0.0013 | 0.05901 ± 0.00052 | 0.055 ± 0.0036 |
| R39T | 0.0616 ± 0.001 | 0.0608 | 0.06029 ± 0.00026 |
| R39S | 0.0607 ± 0.00078 | 0.0603 ± 0.0013 | 0.0592 ± 0.0023 |
| R39D | 0.0603 ± 0.0018 | 0.0608 ± 0.0026 | 0.0597 ± 0.0036 |
| R39C | 0.0599 ± 0.0013 | 0.061 ± 0.00078 | 0.057 ± 0.0029 |
| R33E | 0.06157 ± 0.00052 | 0.06304 ± 0.00052 | 0.0715 ± 0.0031 |
| R33M | 0.0629 ± 0.0013 | 0.0625 ± 0.0013 | 0.0619 ± 0.0015 |
| R33N | 0.0632 ± 0.00078 | 0.0817 ± 0.028 | 0.06084 ± 0.00052 |
| R33L | 0.0605 ± 0.001 | 0.06175 ± 0.00026 | 0.108 ± 0.0042 |
| R33A | 0.0614 ± 0.0023 | 0.0594 | 0.0625 ± 0.00078 |
| R33T | 0.0634 | 0.06267 ± 0.00052 | 0.06285 ± 0.00026 |
| R33W | 0.0636 ± 0.00078 | 0.0629 ± 0.0039 | 0.0718 ± 0.0021 |
| R33H | 0.0623 ± 0.00052 | 0.0607 ± 0.0029 | 0.0707 |
| R33F | 0.0599 ± 0.0018 | 0.061 ± 0.0029 | 0.0665 ± 0.0044 |
| R33Q | 0.0623 ± 0.001 | 0.0612 ± 0.001 | 0.0711 ± 0.0026 |
| R33C | 0.0592 ± 0.00078 | 0.0607 ± 0.0023 | 0.0612 ± 0.0021 |
| R33K | 0.064 ± 0.0013 | 0.0634 ± 0.0042 | 0.112 ± 0.0065 |
| R33S | 0.0623 ± 0.00052 | 0.0605 ± 0.0031 | 0.0656 ± 0.001 |
| R33Y | 0.0647 ± 0.0013 | 0.0618 ± 0.0013 | 0.0702 ± 0.0029 |
| R33P | 0.0607 ± 0.0013 | 0.05956 ± 0.00026 | 0.064 ± 0.00078 |
| R33G | 0.0577 ± 0.00078 | 0.0575 ± 0.0015 | 0.0599 ± 0.0018 |
| R33D | 0.0651 ± 0.00078 | 0.06377 ± 0.00052 | 0.0652 |
| R33I | 0.05772 ± 0.00026 | 0.05662 ± 0.00026 | 0.06542 ± 0.00026 |

| Variant | sfGFP reporter fluorescence [1] | sfGFP reporter fluorescence ([2]; ligand: 1 µM Pb) | sfGFP reporter fluorescence ([2]; ligand: 30 µM Zn) |
| --- | --- | --- | --- |
| R33V | 0.0607 ± 0.00078 | 0.05937 ± 0.00052 | 0.0696 ± 0.0021 |
| L28T | 0.0647 ± 0.0013 | 0.0691 ± 0.0013 | 0.166 ± 0.031 |
| L28M | 0.0616 | 0.077 ± 0.0015 | 0.618 ± 0.023 |
| L28K | 0.06304 ± 0.00052 | 0.0625 ± 0.0018 | 0.05809 ± 0.00026 |
| L28E | 0.06304 ± 0.00052 | 0.0649 ± 0.0015 | 0.0656 |
| L28D | 0.06194 ± 0.00052 | 0.0632 ± 0.00078 | 0.06359 ± 0.00026 |
| L28Y | 0.0621 ± 0.00078 | 0.0627 ± 0.0015 | 0.12 ± 0.0052 |
| L28F | 0.0603 ± 0.00078 | 0.0784 ± 0.0015 | 0.599 ± 0.018 |
| L28H | 0.06249 ± 0.00026 | 0.0625 ± 0.0013 | 0.0563 ± 0.0034 |
| L28W | 0.061 ± 0.0018 | 0.0821 ± 0.001 | 0.878 ± 0.019 |
| L28S | 0.0627 ± 0.0015 | 0.0632 ± 0.0023 | 0.0715 |
| L28V | 0.06175 ± 0.00026 | 0.0819 ± 0.0013 | 0.5124 ± 0.0026 |
| L28G | 0.05882 ± 0.00026 | 0.0581 ± 0.00078 | 0.059 ± 0.001 |
| L28Q | 0.0638 | 0.0619 ± 0.001 | 0.05901 ± 0.00052 |
| L28N | 0.06285 ± 0.00026 | 0.0592 ± 0.00078 | 0.0605 ± 0.0026 |
| L28R | 0.0629 ± 0.0013 | 0.063 ± 0.0026 | 0.0588 ± 0.0029 |
| L28I | 0.0588 ± 0.00078 | 0.0841 ± 0.0013 | 0.908 ± 0.066 |
| L28P | 0.06102 ± 0.00026 | 0.06047 ± 0.00052 | 0.0619 ± 0.001 |
| R53A | 0.0614 ± 0.0018 | 0.06652 ± 0.00026 | 0.487 ± 0.074 |
| G32A | 0.0614 ± 0.0013 | 0.0586 ± 0.0052 | 0.467 ± 0.086 |
